By Km is commonly meant the substrate concentration at which the rate is half of its maximum.

The results in this text go back to publication PMC11869295, “Molecular Principles of Proton-Coupled Quinone Reduction in the Membrane-Bound Superoxide Oxidase” (Journal of the American Chemical Society, 2025).

Holding throughout (experiment): WST-1 competition assay, decrease of formazan formation rate on SOO addition
On the technique in general: Tetrazolium assays rely on reduction of a dye to a coloured formazan, in cell work by metabolically active cells.

The target of data set [1] is T1, superoxide oxidase (SOO); CybB (Escherichia coli, UniProt P0ABE5, H158F).
T1 construct: full length with C-terminal 8xHis tag, expressed in E. coli BL21(DE3) pLysS, membrane protein purified in detergent (OGNG, assayed in DDM), two b hemes
T1 sequence (P0ABE5 whole entry H158F): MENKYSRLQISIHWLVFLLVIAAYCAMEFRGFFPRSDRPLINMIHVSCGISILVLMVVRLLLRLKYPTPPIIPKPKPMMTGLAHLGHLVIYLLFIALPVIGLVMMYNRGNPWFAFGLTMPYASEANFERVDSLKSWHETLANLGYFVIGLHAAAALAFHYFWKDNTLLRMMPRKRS
Type of data set: biochemical. The conditions noted are these: apparent Km; forward reaction, superoxide from xanthine oxidase/hypoxanthine, bo3 oxidase regenerates quinone, 50 nM SOO, 100 mM sodium phosphate pH 8, 0.05% DDM; range printed jointly for H158A and H.

The target of data set [2] is T2, superoxide oxidase (SOO); CybB (Escherichia coli, UniProt P0ABE5, H158A).
T2 construct: full length with C-terminal 8xHis tag, expressed in E. coli BL21(DE3) pLysS, membrane protein purified in detergent (OGNG, assayed in DDM), two b hemes
T2 sequence (P0ABE5 whole entry H158A): as the sequence (P0ABE5 whole entry H158F) above, with F158A counted along it
Type of data set: biochemical. The note with it: apparent Km; forward reaction, superoxide from xanthine oxidase/hypoxanthine, bo3 oxidase regenerates quinone, 50 nM SOO, 100 mM sodium phosphate pH 8, 0.05% DDM; range printed jointly for H158A and H.

Substrate in data set [3]: COC1=C(OC)C(=O)C(C/C=C(\C)CCC=C(C)C)=C(C)C1=O
The format is biochemical, Escherichia coli. The conditions noted are these: apparent Km, forward reaction, superoxide from xanthine oxidase/hypoxanthine, bo3 oxidase regenerates quinone, 50 nM SOO, 100 mM sodium phosphate pH 8, 0.05% DDM.

For the molecule `COC1=C(OC)C(=O)C(C/C=C(\C)CCC=C(C)C)=C(C)C1=O` [ubiquinone Q2], the Km in data set [1] and in data set [2] was 8 to 13 µM throughout.

B1: superoxide oxidase (SOO); CybB (Escherichia coli K-12) (protein)
chain: MENKYSRLQISIHWLVFLLVIAAYCAMEFRGFFPRSDRPLINMIHVSCGISILVLMVVRLLLRLKYPTPPIIPKPKPMMTGLAHLGHLVIYLLFIALPVIGLVMMYNRGNPWFAFGLTMPYASEANFERVDSLKSWHETLANLGYFVIGLHAAAALAHHYFWKDNTLLRMMPRKRS
notes: full length with C-terminal 8xHis tag, expressed in E. coli BL21(DE3) pLysS, membrane protein purified in detergent (OGNG, assayed in DDM), two b hemes
Consider B1, for which, in data set [3], the Michaelis constant (Km) was 0.4 µM.

B2: superoxide oxidase (SOO); CybB (Escherichia coli K-12; D164A) (protein)
chain: MENKYSRLQISIHWLVFLLVIAAYCAMEFRGFFPRSDRPLINMIHVSCGISILVLMVVRLLLRLKYPTPPIIPKPKPMMTGLAHLGHLVIYLLFIALPVIGLVMMYNRGNPWFAFGLTMPYASEANFERVDSLKSWHETLANLGYFVIGLHAAAALAHHYFWKANTLLRMMPRKRS
notes: as for B1
In the case of B2, the Km in data set [3] was found to be 5 µM.

B3: superoxide oxidase (SOO); CybB (Escherichia coli K-12; D164E) (protein)
chain: MENKYSRLQISIHWLVFLLVIAAYCAMEFRGFFPRSDRPLINMIHVSCGISILVLMVVRLLLRLKYPTPPIIPKPKPMMTGLAHLGHLVIYLLFIALPVIGLVMMYNRGNPWFAFGLTMPYASEANFERVDSLKSWHETLANLGYFVIGLHAAAALAHHYFWKENTLLRMMPRKRS
notes: as for B1
Turning to B3, the Michaelis-Menten constant (Km) in data set [3] is 3 µM.
